In assay [1] the target is BRCA1 (1-300) fused to the GAL4 binding domain (human). As to the kind of experiment: yeast two-hybrid, b-galactosidase. How it is done:
(§1) The experiment was conducted using the two-hybrid assay as described in U.S. Pat. No. 5,283,173, or Chien et al., 1991, Proc. Natl. Acad. Sci. USA, 88: 9578–9582. The cDNAs that encode 091-1F84, Sequence ID No. 3, 091-21A31, Sequence ID No. 1 and 091-132Q20, Sequence ID No. 5 were fused to the GAL 4 activation domain, and those regions of BRCA1 shown in the table were fused to the binding domain of GAL4. The "+" sign is a subjective measure of the amount of b-galactosidase activity. One "+" being the lowest, and three "+++" being the highest activity.
(§2) Experiments were conducted to ascertain which regions of BRCA1 interact with the three BRCA1 Modulators described in Example 1. The experiment was conducted using the two-hybrid assay as described in U.S. Pat. No. 5,283,173, or Chien et al., 1991, Proc. Natl. Acad. Sci. USA, 88: 9578–9582. The cDNA that encodes the 091-1F84, Sequence ID No. 3, 091-21A31, Sequence ID No. 1, and 091-132Q20, Sequence ID No. 5 was fused to the GAL4 activation domain, and those regions of BRCA1 shown in Table 1 and that contain BRCA1 amino acids 1–300, 1–600, or 8–1293 were fused to the binding domain of GAL4. Controls consisted of the vector, or bcl2 fused to the GAL4 binding domain (See, U.S. Pat. 5,539,085).

Assay [2] has as its target T1, vector control (GAL4 binding domain vector without insert) (Saccharomyces cerevisiae (strain ATCC …, UniProt P04386)). The assay can be described thus: yeast two-hybrid, b-galactosidase; vector control. On the procedure: as §1, §2
Assay [3] has as its target BRCA1 (1-300) fused to the GAL4 binding domain (human). The assay can be described thus: yeast two-hybrid (Example 3). On the procedure: (§3) Two hybrid experiments were conducted to ascertain the regions of the BRCA1 Modulator 091-21A31, Sequence ID No. 1 that interact with BRCA1. The assay was run essentially as described in Example 1. Transformation and growth of yeast cultures were performed essentially as described in U.S. Pat. No. 5,283,173; Chien et al., 1991, Proc. Natl. Acad. Sci. USA, 88: 9578–9582; or Spaargaren, M., et al., (1994) Biochem. J. 300, 303–307.

Assay [4] deals with T1, vector control (GAL4 binding domain …). As to the kind of experiment: yeast two-hybrid (Example 3); vector control. On the procedure: as §3
For assay [5], the target named is BRCA1 (1-600) fused to the GAL4 binding domain (human). As to the kind of experiment: yeast two-hybrid (Example 3). On the procedure: as §3
The target in assay [6] is GAL4-BRCA1 (8-1293): BRCA1 amino acids 8-1293 fused to the GAL4 binding domain (human). The assay can be described thus: yeast two-hybrid (Example 3). How it is done:
as §3

B1: BRCA1 Modulator Protein 091-1F84, Sequence ID No. 3, fused to the GAL4 activation domain (other)
chain: ARESLSLPSMLRDAAIGTTPFSTCSVGTWFTPSAPQEKSTNTSQTGLVGTKHSTSETEQLLCGRPPDLTALSRHDLEDNLLSSLVILEVLSRQLRDWKSQLAVPHPETQDSSTQTDTSHSGITNKLQHLKESHEMGQALQQARNVMQSWVLISKELISLLHLSLLHLEEDKTTVSQESRRAETLVCCCFDLLKKLRAKLQSLKAEREEARHREEMALRGKDAAEIVLEAFCAHASQRISQLEQDLASMREFRGLLKDAQTQLVGLHAKQEELVQQTVSLTSTLQQDWRSMQLDYTTWTALLSRSRQLTEKLTVKSQQALQERDVAIEEKQEVSRVLEQVSAQLEECKGQTEQLELENSRLATDLRAQLQILANMDSQLKELQSQHTHCAQDLAMKDELFCQLTQSNEEQAAQWQKEEMALKHMQAELQQQQAVLAKEVRDLKETLEFADQENQVAHLELGQVECQLKTTLEVLRERSLQCENLKDTVENLTAKLASTIADNQEQDLEKTRQYSQKLRLLTEQLQSLTLFLQTKLKEKTEQETLLLSTACPPTQEHPLPNDRTFLGSILTAVADEEPESTPVPLLGSDKSAFTRVASMVSLQPAETPGMEESLAEMSIMTTELQSLCSLLQESKEEAIRTLQRKICELQVRLQAQEEQHQEVQKAKEADIEKLNQALCLRYKNEKELQEVIQQQNEKILEQIDKSGELISLREEVTHLTRSLRRAETETKVLQEALAGQLDSNCQPMATNWIQEKVWLSQEVDKLRVMFLEMKNEKEKLMIKFQSHRNILEENLRRSDKELEKLDDIVQHIYKTLLSIPEVVRGCRELQGLLEFLS
For the molecule B1, the binding result in assay [1] and in assay [2] was “no binding” each time.

B2: 091-21A31, Sequence ID No. 1 fragment containing amino acids 78-469 fused to the GAL4 activation domain (other)
chain: FLKNELDNVRAQLSQKDKEKRDSQVIIDTLRDTLEERNATVVSLQQALGKAEMLCSTLKKQMKYLEQQQDETKQAQEEARRLRSKMKTMEQIELLLQSQRPEVEEMIRDMGVGQSAVEQLAVYCVSLKKEYENLKEARKASGEVADKLRKDLFSSRSKLQTVYSELDQAKLELKSAQKDLQSADKEIMSLKKKLTMLQETLNLPPVASETVDRLVLESPAPVEVNLKLRRPSFRDDIDLNATFDVDTPPARPSSSQHGYYEKLCLEKSHSPIQDVPKKICKGPRKESQLSLGGQSCAGEPDEELVGAFPIFVRNAILGQKQPKRPRSESSCSKDVVRTGFDGLGGRTKFIQPTDTVMIRPLPVKPKTKVKQRVRVKTVPSLFQAKLDTFLWS
Consider B2, for which the binding result in assay [3] and in assay [4] was “no binding” in each case.

B3: 091-21A31, Sequence ID No. 1 fragment containing amino acids 300-469 fused to the GAL4 activation domain (other)
chain: EVNLKLRRPSFRDDIDLNATFDVDTPPARPSSSQHGYYEKLCLEKSHSPIQDVPKKICKGPRKESQLSLGGQSCAGEPDEELVGAFPIFVRNAILGQKQPKRPRSESSCSKDVVRTGFDGLGGRTKFIQPTDTVMIRPLPVKPKTKVKQRVRVKTVPSLFQAKLDTFLWS
For the molecule B3, the binding result in assay [3], in assay [5], in assay [6] and in assay [4] was “no binding” in each case.

B4: 091-21A31, Sequence ID No. 1 fragment containing amino acids 1-300 fused to the GAL4 activation domain (other)
chain: MPIRALCTICSDFFDHSRDVAAIHCGHTFHLQCLIQWFETAPSRTCPQCRIQVGKRTIINKLFFDLAQEEENVLDAEFLKNELDNVRAQLSQKDKEKRDSQVIIDTLRDTLEERNATVVSLQQALGKAEMLCSTLKKQMKYLEQQQDETKQAQEEARRLRSKMKTMEQIELLLQSQRPEVEEMIRDMGVGQSAVEQLAVYCVSLKKEYENLKEARKASGEVADKLRKDLFSSRSKLQTVYSELDQAKLELKSAQKDLQSADKEIMSLKKKLTMLQETLNLPPVASETVDRLVLESPAPVE
For the molecule B4, the binding result in assay [3], in assay [5] and in assay [4] was “no binding” throughout.

B5: BRCA1 Modulator Protein 091-132Q20, Sequence ID No. 5, fused to the GAL4 activation domain (other)
chain: ARGGAEEATEAGRGGRRRSPRQKFEIGTMEEAGICGLGVKADMLCNSQSNDILQHQGSNCGGTSNKHSLEEDEGSDFITENRNLVSPAYCTQESREEIPGGEARTDPPDGQQDSECNRNKEKTLGKEVLLLMQALNTLSTPEEKLAALCKKYADLLEESRSVQKQMKILQKKQAQIVKEKVHLQSEHSKAILARSKLESLCRELQRHNKTLKEENMQQAREEEERRIEATAHFQITLNEIQAQLEQHDIHNAKLRQENIELGEKLKKLIEQYALREEHIDKVFKHKELQQQLVDAKLQQTTQLIKEADEKHQREREFLLKEATESRHKYEQMKQQEVQLKQQLSLYMDKFEEFQTTMAKSNELFTTFRQEMEKMTKKIKKKKKKLE
For the molecule B5, the binding result in assay [1] and in assay [2] was “no binding” throughout.

B6: BRCA1 Modulator Protein 091-21A31, Sequence ID No. 1, fused to the GAL4 activation domain (other)
chain: MPIRALCTICSDFFDHSRDVAAIHCGHTFHLQCLIQWFETAPSRTCPQCRIQVGKRTIINKLFFDLAQEEENVLDAEFLKNELDNVRAQLSQKDKEKRDSQVIIDTLRDTLEERNATVVSLQQALGKAEMLCSTLKKQMKYLEQQQDETKQAQEEARRLRSKMKTMEQIELLLQSQRPEVEEMIRDMGVGQSAVEQLAVYCVSLKKEYENLKEARKASGEVADKLRKDLFSSRSKLQTVYSELDQAKLELKSAQKDLQSADKEIMSLKKKLTMLQETLNLPPVASETVDRLVLESPAPVEVNLKLRRPSFRDDIDLNATFDVDTPPARPSSSQHGYYEKLCLEKSHSPIQDVPKKICKGPRKESQLSLGGQSCAGEPDEELVGAFPIFVRNAILGQKQPKRPRSESSCSKDVVRTGFDGLGGRTKFIQPTDTVMIRPLPVKPKTKVKQRVRVKTVPSLFQAKLDTFLWS
For the molecule B6, the binding result in assay [1] and in assay [2] was “no binding” throughout.

Values taken from patent US5948643, “Modulators of BRCA1 activity” (Onyx Pharmaceuticals, Inc., dated 1999).
